Experimental data published in patent US6635429, “Heterodimeric nuclear receptors proteins, genes encoding same, and usage thereof” (Institut National de la Sante et de la Recherche Medicale).

T1: RXRα (yeast) (Mus musculus, UniProt P28700 SEQ:1-467)
T1 sequence: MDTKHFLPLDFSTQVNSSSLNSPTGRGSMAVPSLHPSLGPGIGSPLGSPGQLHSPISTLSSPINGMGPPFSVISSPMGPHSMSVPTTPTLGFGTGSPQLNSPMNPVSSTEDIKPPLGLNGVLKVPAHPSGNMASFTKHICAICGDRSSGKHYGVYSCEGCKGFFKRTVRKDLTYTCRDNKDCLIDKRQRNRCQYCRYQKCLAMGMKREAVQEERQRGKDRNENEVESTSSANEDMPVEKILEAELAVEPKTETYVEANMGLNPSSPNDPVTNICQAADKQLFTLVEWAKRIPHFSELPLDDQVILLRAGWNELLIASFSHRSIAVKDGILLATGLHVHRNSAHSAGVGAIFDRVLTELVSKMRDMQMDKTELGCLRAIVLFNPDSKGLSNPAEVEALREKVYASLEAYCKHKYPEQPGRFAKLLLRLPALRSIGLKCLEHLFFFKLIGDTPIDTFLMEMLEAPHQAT

T2: RARα1/RXRα heterodimer (yeast) (Homo sapiens/Mus musculus, UniProt P10276;P28700 P10276:1-462,P28700:1-467)
T2 sequence 1: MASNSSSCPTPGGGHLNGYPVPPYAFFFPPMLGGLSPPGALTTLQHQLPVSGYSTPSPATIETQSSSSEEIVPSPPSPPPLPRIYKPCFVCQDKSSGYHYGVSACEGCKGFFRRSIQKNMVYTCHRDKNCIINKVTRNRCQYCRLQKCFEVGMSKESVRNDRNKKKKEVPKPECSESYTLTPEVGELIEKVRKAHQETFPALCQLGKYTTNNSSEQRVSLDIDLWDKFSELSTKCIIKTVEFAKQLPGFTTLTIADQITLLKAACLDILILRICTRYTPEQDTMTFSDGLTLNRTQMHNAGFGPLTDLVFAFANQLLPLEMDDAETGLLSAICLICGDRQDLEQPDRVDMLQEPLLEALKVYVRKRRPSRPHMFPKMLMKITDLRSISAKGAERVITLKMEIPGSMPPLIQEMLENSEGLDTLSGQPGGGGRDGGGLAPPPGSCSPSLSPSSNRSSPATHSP
T2 sequence 2: T1 sequence

B1: DR1 (dsDNA)
DNA 1: AGGTCAGAGGTCA
DNA 2: TGACCTCTGACCT
B2: DR4 (dsDNA)
DNA 1: AGGTCAGCGAAGGTCA
DNA 2: TGACCTTCGCTGACCT
B3: DR5 (dsDNA)
DNA 1: AGGTCAGCGAGAGGTCA
DNA 2: TGACCTCTCGCTGACCT
B4: DR2 (dsDNA)
DNA 1: AGGTCAGCAGGTCA
DNA 2: TGACCTGCTGACCT
B5: DR3 (dsDNA)
DNA 1: AGGTCAGCGAGGTCA
DNA 2: TGACCTCGCTGACCT
B6: IR0 (dsDNA)
DNA 1: AGGTCATGACCT
DNA 2: AGGTCATGACCT

Tests used:
Settings in all cases: protein: extract; tags: yeast-expressed
RXRα (yeast) [1] = target: T1, RXRα (yeast); assay: cell_activity; yeast, 9-cis RA
Excerpt: (§1) FIG. 13A, Sequences of the response elements used in this study consisting of a direct repeat of a hexamer sequence spaced by one to five base pairs (DR1–DR5), or an inverted repeat of the same hexamer with no spacing (IR0). The hexamer repeats are indicated by arrows and the spacer sequences are presented in lower case. FIG. 13B, Transactivation of URA3 reporter genes containing the different elements by homodimers and heterodimers of RARα and RXRα. The sequences represented in FIG. 13A were cloned into the promoter of a URA3 reporter gene carried on a centromeric plasmid to generate the DRn-URA3 reporter series and IR0-URA3. The reporters were introduced into a yeast strain containing multicopy vectors expressing RARα, RXRα or no receptor. […] "Control" indicates the basal reporter activity in the absence of receptors (using "empty" expression vectors), and the experiments using only one receptor were performed in the presence of the corresponding "empty" vector. The white, hatched and black columns indicate the reporter activity in the presence of no ligand, all-trans RA and 9-cis RA, respectively. The reporter activities are given as units of OMPdecase activity per minute per mg protein, and the values represent the average of at least 2 experiments using at least 2 different clones per experiment. […] Similar amounts of each probe (50, 000 cpm) were used in the assays.

[2] = target: T2, RARα1/RXRα heterodimer (yeast); assay: cell_activity; yeast URA3 reporter, 500 nM 9-cis RA
Excerpt: as §1

[3] = target: T2, RARα1/RXRα heterodimer (yeast); assay: cell_activity; yeast, 500 nM 9-cis RA
Excerpt: as §1

[4] = target: T2, RARα1/RXRα heterodimer (yeast); assay: cell_activity; yeast, 500 nM 9-cis RA; low absolute activity
Excerpt: as §1

RXRα (yeast) [5] = target: T1, RXRα (yeast); assay: cell_activity; yeast, ligand dependent; low absolute activity
Excerpt: as §1

Row | Binder | activity [2] | activity [3] | further results
1 | B1 | 36 fold over control |  | activity (RXRα (yeast) [1]): ≥ 30 fold
2 | B2 |  | ~10 fold over control | 
3 | B3 | 60 fold over control |  | 
4 | B4 |  | ~10 fold over control | 
5 | B5 |  | ~10 fold over control | 
6 | B6 |  |  | activity [4]: 40 fold over control; activity (RXRα (yeast) [5]): 20 fold over control
